Assay results published in US10294504B2, “Mutant endoglycoceramidases with enhanced synthetic activity” (La Jolla Pharmaceutical Company, priority 2004, dated 2019).

Assay: Hydrolysis kinetics of wild-type Rhodococcus EGC using 2,4-dinitrophenyl lactoside as the substrate
Format: biochemical
Protocol: FIG. 18 illustrates a Michaelis-Menten curve for wild-type Rhodococcus EGC using 2,4-dinitrophenyl lactoside as the substrate.
FIGS. 19A-19C illustrate variation of kcat, Km, and kcat/Km with increasing detergent concentration for wild-type Rhodococcus EGC.
FIG. 20 illustrates pH rate profile for wild-type Rhodococcus EGC.
Using 2,4-dinitrophenyl lactoside as a substrate, the Rhodococcus M-777 EGC enzyme has a Km of approximately 2 mM, and a kcat of 90 min-1 (FIG. 18). The dependence of the activity on detergent concentration was also investigated. […] The dependence of kcat/Km on detergent concentration leveled off at concentrations greater than 0.5%; increasing the detergent concentration caused a steady increase in both kcat and Km up to a concentration of 1% (FIGS. 19A-C). The pH dependence of the hydrolysis activity was also investigated. As expected, the maximal kcat/Km is observed around pH 5 (FIG. 20).

[1] = substrate 2,4-dinitrophenyl lactoside

B1: Rhodococcus M-777 EGC: wild-type endoglycoceramidase from Rhodococcus sp. M-777, GenBank AAB67050, SEQ ID NO:3 (protein, listed as Rhodococcus sp.)
chain: MRRTRLVSLIVTGSLVFGGGVAAAQSSLAASGSGSGSGTALTPSYLKDDDGRSLILRGFNTASSAKSAPDGMPQFTEADLAREYADMGTNFVRFLISWRSVEPAPGVYDQQYLDRVEDRVGWYAERGYKVMLDMHQDVYSGAITPEGNSGNGAGAIGNGAPAWATYMDGLPVEPQPRWELYYIQPGVMRAFDNFWNTTGKHPELVEHYAKAWRAVADRFADNDAVVAYDLMNEPFGGSLQGPAFEAGPLAAMYQRTTDAIRQVDQDTWVCVAPQAIGVNQGLPSGLTKIDDPRAGQQRIAYCPHLYPLPLDIGDGHEGLARTLTDVTIDAWRANTAHTARVLGDVPIILGEFGLDTTLPGARDYIERVYGTAREMGAGVSYWSSDPGPWGPYLPDGTQTLLVDTLNKPYPRAVAGTPTEWSSTSDRLQLTIEPDAAITAPTEIYLPEAGFPGDVHVEGADVVGWDRQSRLLTVRTPADSGNVTVTVTPAA
rate of hydrolysis (in the absence of detergent): very low | pH of maximal kcat/Km (pH dependence of the hydrolysis activity): ~5 pH | Km [1]: ~2000 µM | kcat [1]: 1.5 s⁻¹
